The results in this text go back to publication PMC9589210.

For test [1], the target named is microtubules polymerised from bovine brain tubulin (bovine (endogenous in brain)) (UniProt Q6B856).
Test [2] has the same target. The experiment in a line: TIRF microscopy (single-molecule imaging); 750 nM unlabeled Tau spiked with 300 pM Alexa-647-labeled Tau on dynamic microtubules (5 μM tubulin, 10% Alexa-488) grown from surface-held GMPCPP seeds, TIRF assay buffer, 37 °C, 10 frames/s.
The target is the same in test [3]. Briefly: TIRF microscopy (fluorescence intensity of labeled Tau on microtubules); occupancy: 750 nM Alexa-647 Tau on dynamic microtubules grown from surface-held GMPCPP seeds with 5 μM tubulin, 1 mM GTP, TIRF assay buffer (BRB80, 10 mM DTT, oxygen scavenger), 37 °C; normalized average fluorescence intensity, seeds excluded.
Test [4] has as its target R5L-Tau, 3RS isoform, Alexa 488-labeled (construct for FCS) (UniProt P10636). The experiment in a line: fluorescence correlation spectroscopy (FCS); ~20 nM Alexa 488-labeled Tau, tubulin titrated 0.5-10 μM, nonpolymerizing conditions, BRB80 (80 mM Pipes, 1 mM EGTA, 1 mM MgCl2, pH 6.9), 20 °C, 5 min incubation; diffusion times normalised to that without tubulin and fit to a binding model.

The target of test [5] is WT-Tau, 3RS isoform, Alexa 488-labeled (construct for FCS) (UniProt P10636). The test is described as above.

“R5L-Tau, 3RS isoform (construct for TIRF microscopy), Alexa 647-labeled (from UniProt P10636-2 1-352) (natural protein)”: in test [1], the microtubule growth rate at the minus end, dynamic microtubules with 750 nM unlabeled Tau (TIRF) came out at 0.41 μm/min; the microtubule growth rate at the plus end, dynamic microtubules with 750 nM unlabeled Tau (TIRF) was determined as 1.04 μm/min; the microtubule shrinkage rate at the minus end, dynamic microtubules with 750 nM unlabeled Tau (TIRF) is 10.4 μm/min; the microtubule shrinkage rate at the plus end, dynamic microtubules with 750 nM unlabeled Tau (TIRF) came out at 11 μm/min. Further, in test [2], the dwell time of diffusive events was found to be 0.5 s, the dwell time of static events amounted to 0.7 s and the percent static binding turned out to be 18%. This substance displayed a relative normalized fluorescence intensity of Tau on dynamic microtubules in test [3] of 0.68.

Turning to “WT-Tau, 3RS isoform (construct for TIRF microscopy), Alexa 647-labeled (from UniProt P10636-2 1-352) (natural protein)”, in test [1], the microtubule growth rate at the minus end, dynamic microtubules with 750 nM unlabeled Tau (TIRF) was 0.4 μm/min; the microtubule growth rate at the plus end, dynamic microtubules with 750 nM unlabeled Tau (TIRF) is 1 μm/min; the microtubule shrinkage rate at the minus end, dynamic microtubules with 750 nM unlabeled Tau (TIRF) stood at 7.12 μm/min; the microtubule shrinkage rate at the plus end, dynamic microtubules with 750 nM unlabeled Tau (TIRF) came out at 7.55 μm/min. In test [2], this substance displayed a dwell time of diffusive events of 0.6 s, a dwell time of static events of 0.7 s and a percent static binding of 43%. Besides, the relative normalized fluorescence intensity of Tau on dynamic microtubules in test [3] amounted to 1.

In the case of “tubulin (free, soluble), purified from bovine brain (from UniProt Q6B856 1-445) (complex)”, the increase of the normalized diffusion time of Tau at saturation in test [4] and in test [5] was 50% in each case.
